This is an account of results in patent US10087225B2, “Formulation of MK2 inhibitor peptides” (MOERAE MATRIX, INC., priority 2015, dated 2018).

Experiment in all cases: Kinase Profiling Assay
Common to all, as to assay type: biochemical
What all share (details): for % activity: 100 μM

Test [1] concerns the target T1, ASK1(h) (Homo sapiens, UniProt Q99683).
T1 sequence (Q99683 1-1374): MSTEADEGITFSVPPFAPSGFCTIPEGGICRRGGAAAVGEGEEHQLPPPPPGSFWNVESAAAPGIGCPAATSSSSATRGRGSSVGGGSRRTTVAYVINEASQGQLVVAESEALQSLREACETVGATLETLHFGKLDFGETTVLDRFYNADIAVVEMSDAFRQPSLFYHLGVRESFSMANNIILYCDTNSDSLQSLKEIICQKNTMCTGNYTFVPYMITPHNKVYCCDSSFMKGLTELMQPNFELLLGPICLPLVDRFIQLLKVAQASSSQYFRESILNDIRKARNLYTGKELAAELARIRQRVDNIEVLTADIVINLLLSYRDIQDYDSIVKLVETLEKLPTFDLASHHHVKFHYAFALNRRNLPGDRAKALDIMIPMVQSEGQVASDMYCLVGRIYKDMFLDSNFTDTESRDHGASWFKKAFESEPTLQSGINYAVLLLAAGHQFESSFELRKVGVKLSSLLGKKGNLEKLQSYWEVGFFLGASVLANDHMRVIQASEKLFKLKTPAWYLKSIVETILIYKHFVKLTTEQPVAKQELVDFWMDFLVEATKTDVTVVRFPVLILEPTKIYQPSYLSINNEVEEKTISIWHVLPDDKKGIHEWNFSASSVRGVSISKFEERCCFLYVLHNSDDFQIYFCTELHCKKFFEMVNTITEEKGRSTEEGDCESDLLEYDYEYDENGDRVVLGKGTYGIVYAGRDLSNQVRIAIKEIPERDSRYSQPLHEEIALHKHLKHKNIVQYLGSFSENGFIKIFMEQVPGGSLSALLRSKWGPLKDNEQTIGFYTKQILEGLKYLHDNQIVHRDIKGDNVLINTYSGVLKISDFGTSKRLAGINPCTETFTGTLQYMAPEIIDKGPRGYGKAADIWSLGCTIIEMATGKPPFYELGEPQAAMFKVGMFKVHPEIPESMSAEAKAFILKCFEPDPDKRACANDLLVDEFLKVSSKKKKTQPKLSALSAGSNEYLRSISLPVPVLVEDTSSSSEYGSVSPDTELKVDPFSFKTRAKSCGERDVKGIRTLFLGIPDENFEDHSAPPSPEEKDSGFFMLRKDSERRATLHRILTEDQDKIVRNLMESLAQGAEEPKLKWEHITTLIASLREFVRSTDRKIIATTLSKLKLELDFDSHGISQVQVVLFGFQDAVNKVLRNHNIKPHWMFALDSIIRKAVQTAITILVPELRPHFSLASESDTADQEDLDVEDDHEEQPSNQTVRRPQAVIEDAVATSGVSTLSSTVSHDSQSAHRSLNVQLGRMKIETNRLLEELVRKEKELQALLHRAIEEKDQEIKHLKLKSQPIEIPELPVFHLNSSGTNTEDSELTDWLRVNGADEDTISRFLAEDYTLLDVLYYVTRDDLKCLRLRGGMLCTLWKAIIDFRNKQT

Test [2] has as its target T2, EphB1(h) (Homo sapiens, UniProt P54762).
T2 sequence (P54762 18-984): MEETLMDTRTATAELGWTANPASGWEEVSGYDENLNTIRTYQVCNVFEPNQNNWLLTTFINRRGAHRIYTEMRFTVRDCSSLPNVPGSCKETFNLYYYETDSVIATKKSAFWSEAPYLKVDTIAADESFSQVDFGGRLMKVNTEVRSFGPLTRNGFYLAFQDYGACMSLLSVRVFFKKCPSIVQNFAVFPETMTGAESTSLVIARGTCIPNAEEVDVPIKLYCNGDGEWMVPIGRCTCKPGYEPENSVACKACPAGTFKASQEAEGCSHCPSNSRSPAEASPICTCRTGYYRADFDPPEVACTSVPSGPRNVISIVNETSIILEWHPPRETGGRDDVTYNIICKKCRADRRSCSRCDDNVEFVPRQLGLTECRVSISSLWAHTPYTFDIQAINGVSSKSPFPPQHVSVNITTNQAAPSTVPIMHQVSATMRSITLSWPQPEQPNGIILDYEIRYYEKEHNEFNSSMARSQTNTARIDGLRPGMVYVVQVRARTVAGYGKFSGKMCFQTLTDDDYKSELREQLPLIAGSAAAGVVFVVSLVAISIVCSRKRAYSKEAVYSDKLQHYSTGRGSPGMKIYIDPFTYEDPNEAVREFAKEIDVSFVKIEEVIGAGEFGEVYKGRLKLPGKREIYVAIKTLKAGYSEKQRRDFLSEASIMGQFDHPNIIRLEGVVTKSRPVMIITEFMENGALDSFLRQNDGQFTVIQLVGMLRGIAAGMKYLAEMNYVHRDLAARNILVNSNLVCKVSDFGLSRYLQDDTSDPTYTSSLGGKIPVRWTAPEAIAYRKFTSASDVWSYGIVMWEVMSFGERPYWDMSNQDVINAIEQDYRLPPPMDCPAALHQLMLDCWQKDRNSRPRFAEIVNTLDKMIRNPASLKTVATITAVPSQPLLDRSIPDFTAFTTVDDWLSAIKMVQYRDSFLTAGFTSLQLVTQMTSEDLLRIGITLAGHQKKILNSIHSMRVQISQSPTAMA

Test [3] addresses KDR(h) (Homo sapiens, UniProt P35968).
Test [4] deals with MAPKAP-K3(h) (Homo sapiens, UniProt Q16644).
Sequence of MAPKAP-K3(h) (Q16644 whole entry): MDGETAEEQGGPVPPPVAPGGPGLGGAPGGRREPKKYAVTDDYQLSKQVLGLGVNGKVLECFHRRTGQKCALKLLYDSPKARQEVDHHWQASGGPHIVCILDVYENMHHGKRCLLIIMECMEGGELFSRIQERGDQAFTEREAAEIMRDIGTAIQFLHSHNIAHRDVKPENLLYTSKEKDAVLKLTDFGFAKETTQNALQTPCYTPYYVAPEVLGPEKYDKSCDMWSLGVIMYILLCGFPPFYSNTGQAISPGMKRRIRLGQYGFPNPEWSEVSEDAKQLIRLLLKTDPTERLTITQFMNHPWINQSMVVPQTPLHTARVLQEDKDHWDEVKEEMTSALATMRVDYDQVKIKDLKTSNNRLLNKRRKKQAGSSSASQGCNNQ
Test [5] concerns the target SRPK2(h) (Homo sapiens, UniProt P78362).
The target of test [6] is T3, Txk(h) (Homo sapiens, UniProt P42681).
T3 sequence (P42681 1-527): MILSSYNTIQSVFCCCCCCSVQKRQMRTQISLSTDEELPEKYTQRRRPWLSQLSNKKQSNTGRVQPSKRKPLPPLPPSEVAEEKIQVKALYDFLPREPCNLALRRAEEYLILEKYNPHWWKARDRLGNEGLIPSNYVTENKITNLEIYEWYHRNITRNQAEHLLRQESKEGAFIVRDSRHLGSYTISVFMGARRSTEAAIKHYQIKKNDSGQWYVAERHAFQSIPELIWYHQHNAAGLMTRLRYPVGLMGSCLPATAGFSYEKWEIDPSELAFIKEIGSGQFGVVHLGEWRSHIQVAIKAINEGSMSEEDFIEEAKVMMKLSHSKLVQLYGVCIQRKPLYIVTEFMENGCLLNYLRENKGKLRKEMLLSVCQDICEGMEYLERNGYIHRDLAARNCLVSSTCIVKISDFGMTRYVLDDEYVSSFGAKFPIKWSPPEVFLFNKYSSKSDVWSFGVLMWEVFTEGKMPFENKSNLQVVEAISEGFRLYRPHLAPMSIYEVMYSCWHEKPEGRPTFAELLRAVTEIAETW

Sequence of KDR(h) (P35968 20-1356): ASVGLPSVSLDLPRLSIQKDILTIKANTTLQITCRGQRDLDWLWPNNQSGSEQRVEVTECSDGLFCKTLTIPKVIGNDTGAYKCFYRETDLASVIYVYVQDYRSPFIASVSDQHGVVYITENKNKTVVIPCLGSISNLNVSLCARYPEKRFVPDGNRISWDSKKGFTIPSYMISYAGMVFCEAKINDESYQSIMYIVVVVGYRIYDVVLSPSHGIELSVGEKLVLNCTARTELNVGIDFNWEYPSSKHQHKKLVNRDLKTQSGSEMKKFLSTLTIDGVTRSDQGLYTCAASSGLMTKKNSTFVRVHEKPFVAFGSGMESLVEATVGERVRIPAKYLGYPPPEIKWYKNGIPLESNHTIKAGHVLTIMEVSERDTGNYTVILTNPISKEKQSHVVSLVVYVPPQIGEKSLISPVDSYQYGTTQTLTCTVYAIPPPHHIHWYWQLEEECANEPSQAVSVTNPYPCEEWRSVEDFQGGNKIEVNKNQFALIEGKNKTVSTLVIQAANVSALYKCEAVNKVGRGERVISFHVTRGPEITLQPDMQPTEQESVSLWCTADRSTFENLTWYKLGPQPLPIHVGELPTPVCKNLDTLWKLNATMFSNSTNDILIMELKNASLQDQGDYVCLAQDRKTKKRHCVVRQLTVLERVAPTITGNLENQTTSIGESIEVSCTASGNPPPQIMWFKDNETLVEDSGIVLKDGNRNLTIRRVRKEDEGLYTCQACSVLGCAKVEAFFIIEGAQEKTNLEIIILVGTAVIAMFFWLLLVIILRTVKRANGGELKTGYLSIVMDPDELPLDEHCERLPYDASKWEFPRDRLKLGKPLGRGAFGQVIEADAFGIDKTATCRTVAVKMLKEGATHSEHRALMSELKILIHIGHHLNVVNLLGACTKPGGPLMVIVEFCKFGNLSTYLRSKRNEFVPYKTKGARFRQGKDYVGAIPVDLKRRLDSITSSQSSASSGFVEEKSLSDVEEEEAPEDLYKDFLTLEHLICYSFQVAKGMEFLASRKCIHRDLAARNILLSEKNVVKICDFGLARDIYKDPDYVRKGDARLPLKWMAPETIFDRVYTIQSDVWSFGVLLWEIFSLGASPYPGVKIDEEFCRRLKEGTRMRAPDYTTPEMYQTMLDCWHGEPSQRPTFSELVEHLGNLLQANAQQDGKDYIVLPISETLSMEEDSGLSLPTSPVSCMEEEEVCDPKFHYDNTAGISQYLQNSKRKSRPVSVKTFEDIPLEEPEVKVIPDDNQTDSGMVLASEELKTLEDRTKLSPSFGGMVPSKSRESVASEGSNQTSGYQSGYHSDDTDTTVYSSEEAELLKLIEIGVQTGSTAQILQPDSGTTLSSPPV
Sequence of SRPK2(h) (P78362 whole entry): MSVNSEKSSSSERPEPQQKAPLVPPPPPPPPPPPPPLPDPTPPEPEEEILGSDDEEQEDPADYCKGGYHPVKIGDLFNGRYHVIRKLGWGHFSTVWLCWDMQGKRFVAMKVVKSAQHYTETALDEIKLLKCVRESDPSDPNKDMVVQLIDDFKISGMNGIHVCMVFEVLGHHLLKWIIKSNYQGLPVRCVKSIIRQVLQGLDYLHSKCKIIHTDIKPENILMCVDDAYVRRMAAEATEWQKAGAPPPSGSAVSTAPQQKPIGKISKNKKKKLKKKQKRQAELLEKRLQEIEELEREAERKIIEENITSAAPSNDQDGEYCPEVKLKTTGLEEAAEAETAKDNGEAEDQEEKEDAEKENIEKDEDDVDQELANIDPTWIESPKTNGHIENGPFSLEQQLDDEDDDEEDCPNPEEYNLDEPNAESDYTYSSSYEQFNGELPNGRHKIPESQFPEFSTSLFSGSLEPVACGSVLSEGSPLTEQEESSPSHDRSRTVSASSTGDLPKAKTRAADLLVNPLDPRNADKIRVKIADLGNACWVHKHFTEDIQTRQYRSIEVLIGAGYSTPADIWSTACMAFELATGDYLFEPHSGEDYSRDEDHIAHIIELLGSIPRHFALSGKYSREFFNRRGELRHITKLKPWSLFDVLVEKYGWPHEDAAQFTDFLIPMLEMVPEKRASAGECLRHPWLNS

Consider H-YARAAARQARAKALARQLGVAA-OH [MMI-0100], for which the activity at 100 µM in test [1] was 100%; in test [2] it was 99%; in test [3], 100%; in test [4], 27%; in test [5], 92%; in test [6], 87%.
For “HRRIKAWLKKIKALARQLGVAA (Mammalian) [MMI-0500]”, the “% activity” value in test [1] was -4%; in test [2] it was 37%; in test [3] it was 15%; in test [4], 9%; in test [5], 80%; in test [6], 10%.
“YARAAARQARAKALNRQLGVA (Mammalian) [MMI-0200]”: the “% activity” value was determined as 101% in test [1]; 95% in test [2]; 110% in test [3]; 39% in test [4]; 100% in test [5]; 98% in test [6].
